The source of these data is patent US20240301064A1 (published 2024).

The target of the experiment is T1, human PD-1 (human, UniProt Q15116 25-167, limits assumed).
T1 construct: also called huPD-1
Kind of experiment: BLI, antibody on AHC tip, soluble PD-1. For orientation: BLI is a label-free optical method that tracks binding on a fibre tip over time.

Positions count from the first letter of the chain named.

T1 sequence (Q15116 25-167 limits assumed): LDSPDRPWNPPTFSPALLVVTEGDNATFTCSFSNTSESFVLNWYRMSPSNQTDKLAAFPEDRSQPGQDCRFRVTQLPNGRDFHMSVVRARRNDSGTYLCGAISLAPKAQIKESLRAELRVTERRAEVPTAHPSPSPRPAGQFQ

B1: PMAB274 (antibody, human IgG1, kappa, V domains shown)
VH: EVQLVQSGAEVKKPGASVKVSCKASGYTFTTYYMHWVRQAPGQGLEWMGIINPSGGSTSYAQKFQGRVTMTRDTSTSTVYMELSSLRSEDTAVYYCASGWVYWGQGTLVTVSS
VL: DIQMTQSPSSLSASVGDRVTITCQASRDIKNYLAWYQQKPGKAPKLLIYAASSLQSGVPSRFSGSGSGTDFTLTISSLQPEDFATYYCQQSYSTPPTFGPGTKVDIKR
Consider B1, for which binding was characterised by a dissociation constant (Kd) of 1790 nM.

B2: PMAB277 (antibody, human IgG1, kappa, V domains shown)
VH: B1 VH
VL: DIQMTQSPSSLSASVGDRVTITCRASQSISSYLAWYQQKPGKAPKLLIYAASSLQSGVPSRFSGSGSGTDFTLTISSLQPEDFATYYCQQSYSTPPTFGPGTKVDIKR
For the molecule B2, the dissociation constant Kd (usually the free concentration of one partner at which half of the binding sites on the other are occupied at equilibrium, for simple one-to-one binding) was found to be 896 nM.

B3: PMAB275 (antibody, human IgG1, kappa, V domains shown)
VH: B1 VH with T28S, T31S
VL: B1 VL
Molecule B3 yielded a Kd of 849 nM.

B4: PMAB276 (antibody, human IgG1, kappa, V domains shown)
VH: B1 VH with T28S
VL: B1 VL
With B4, the Kd was 985 nM.

B5: PMAB278 (antibody, human IgG1, kappa, V domains shown)
VH: B1 VH with T28S, T31S
VL: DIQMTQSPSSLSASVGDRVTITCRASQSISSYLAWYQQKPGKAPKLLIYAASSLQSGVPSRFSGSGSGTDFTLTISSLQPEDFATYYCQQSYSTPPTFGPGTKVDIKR
As for B5, the affinity, expressed as Kd, was 892 nM.

B6: PMAB119 (bispecific antibody, human IgG1, kappa)
heavy: QVQLVQSGAEVKKPGASVKVSCKASGYSFTTYYMHWVRQAPGQGLEWMGIIAPSGGSTSYAQKFQGRVTMTRDTSTSTVYMELSSLRSEDTAVYYCASGWVYWGQGTLVTVSSASTKGPSVFPLAPSSKSTSGGTAALGCLVKDYFPEPVTVSWNSGALTSGVHTFPAVLQSSGLYSLSSVVTVPSSSLGTQTYICNVNHKPSNTKVDKKVEPKSCDKTHTCPPCPAPEAAGAPSVFLFPPKPKDTLMISRTPEVTCVVVDVSHEDPEVKFNWYVDGVEVHNAKTKPREEQYNSTYRVVSVLTVLHQDWLNGKEYKCKVSNKALPAPIEKTISKAKGQPREPQVYTLPPSREEMTKNQVSLTCLVKGFYPSDIAVEWESNGQPENNYKTTPPVLDSDGSFFLYSKLTVDKSRWQQGNVFSCSVMHEALHNHYTQKSLSLSPGGGGGSGGGGSGGGGSEVQLLESGGGLVQPGGSLRLSCAASGFTFSDFWMHWVRQAPGKGLEWISYISGDSGYTNYADSVKGRFTISRDNSKNTLYLQMNSLRAEDTAVYYCARDRPYYYYMDVWGKGTTVTVSSGGGGSGGGGSGGGGSGGGGSDIQMTQSPSSLSASVGDRVTITCRASQSVSRSLAWYQQKPGKAPKLLIYAASSLQSGVPSRFSGSGSGTDFTLTISSLQPEDFATYYCQQYKSYPVTFGQGTKVEIK
light: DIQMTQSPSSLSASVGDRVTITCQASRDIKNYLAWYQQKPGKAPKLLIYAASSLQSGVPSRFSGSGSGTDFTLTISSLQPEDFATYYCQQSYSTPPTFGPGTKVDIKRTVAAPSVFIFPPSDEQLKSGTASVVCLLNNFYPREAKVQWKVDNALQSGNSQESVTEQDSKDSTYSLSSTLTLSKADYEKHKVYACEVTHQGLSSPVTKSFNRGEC
In the case of B6, the Kd was 96.9 nM.

B7: PMAB114 (bispecific antibody, human IgG1, kappa)
heavy: B6 heavy
light: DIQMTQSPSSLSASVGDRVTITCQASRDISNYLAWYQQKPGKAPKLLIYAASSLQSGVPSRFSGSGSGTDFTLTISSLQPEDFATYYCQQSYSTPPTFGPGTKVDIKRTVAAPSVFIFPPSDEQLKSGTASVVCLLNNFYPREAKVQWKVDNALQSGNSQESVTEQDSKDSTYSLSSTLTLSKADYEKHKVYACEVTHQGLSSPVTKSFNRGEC
B7 showed a Kd of 113 nM.

B8: PMAB109 (bispecific antibody, human IgG1, kappa)
heavy: B6 heavy with T31S
light: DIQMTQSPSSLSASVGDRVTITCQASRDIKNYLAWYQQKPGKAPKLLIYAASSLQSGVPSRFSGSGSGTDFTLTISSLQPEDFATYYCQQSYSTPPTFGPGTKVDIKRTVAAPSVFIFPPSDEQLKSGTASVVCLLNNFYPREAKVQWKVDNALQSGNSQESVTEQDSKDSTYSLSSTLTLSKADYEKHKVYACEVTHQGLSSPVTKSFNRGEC
B8 returned a Kd of 85.9 nM.

B9: PMAB113 (bispecific antibody, human IgG1, kappa)
heavy: B6 heavy
light: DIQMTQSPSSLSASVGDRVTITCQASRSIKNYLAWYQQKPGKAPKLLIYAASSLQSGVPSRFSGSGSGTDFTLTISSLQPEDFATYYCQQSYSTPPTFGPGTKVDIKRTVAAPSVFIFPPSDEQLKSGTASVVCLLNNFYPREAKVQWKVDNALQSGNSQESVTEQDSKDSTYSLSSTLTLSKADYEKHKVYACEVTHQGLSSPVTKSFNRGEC
B9 had a Kd of 91.7 nM.

B10: PMAB111 (bispecific antibody, human IgG1, kappa)
heavy: B6 heavy
light: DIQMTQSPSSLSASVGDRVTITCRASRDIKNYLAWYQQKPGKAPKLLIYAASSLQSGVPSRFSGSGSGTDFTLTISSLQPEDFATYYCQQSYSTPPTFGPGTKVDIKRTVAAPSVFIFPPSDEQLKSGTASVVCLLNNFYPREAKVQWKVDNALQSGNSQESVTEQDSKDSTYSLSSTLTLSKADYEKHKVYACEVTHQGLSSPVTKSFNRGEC
Consider B10, for which the Kd turned out to be 67.6 nM.

B11: PMAB108 (bispecific antibody, human IgG1, kappa)
heavy: B6 heavy with S28T
light: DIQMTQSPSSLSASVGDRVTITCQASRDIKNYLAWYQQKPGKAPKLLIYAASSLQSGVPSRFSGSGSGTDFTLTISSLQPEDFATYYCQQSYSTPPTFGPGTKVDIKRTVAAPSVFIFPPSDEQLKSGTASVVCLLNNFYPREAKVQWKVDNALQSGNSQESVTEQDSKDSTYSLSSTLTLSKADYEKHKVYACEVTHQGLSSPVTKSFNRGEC
Molecule B11 registered a Kd of 55.3 nM.

B12: PMAB115 (bispecific antibody, human IgG1, kappa)
heavy: B6 heavy
light: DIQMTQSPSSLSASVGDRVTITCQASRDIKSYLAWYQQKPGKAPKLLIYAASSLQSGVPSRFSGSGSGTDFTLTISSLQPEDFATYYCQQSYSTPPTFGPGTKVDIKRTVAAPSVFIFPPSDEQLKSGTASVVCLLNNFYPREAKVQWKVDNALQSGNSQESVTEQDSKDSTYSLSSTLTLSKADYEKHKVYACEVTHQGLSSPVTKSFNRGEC
The molecule B12 yielded a dissociation constant Kd of 229 nM.

B13: PMAB112 (bispecific antibody, human IgG1, kappa)
heavy: B6 heavy
light: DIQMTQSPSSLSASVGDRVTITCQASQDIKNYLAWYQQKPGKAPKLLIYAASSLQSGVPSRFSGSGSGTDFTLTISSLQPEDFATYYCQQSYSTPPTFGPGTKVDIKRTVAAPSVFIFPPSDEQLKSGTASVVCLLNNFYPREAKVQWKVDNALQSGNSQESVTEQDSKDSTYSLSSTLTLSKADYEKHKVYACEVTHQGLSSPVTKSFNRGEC
Consider B13, for which the Kd was 76.2 nM.

B14: PMAB183 (bispecific antibody, human IgG1, kappa)
heavy: EVQLLESGGGLVQPGGSLRLSCAASGFTFSNSDMSWVRQAPGKGLEWVSAISGSGGSTYYADSVKGRFTISRDNSKNTLYLQMNSLRAEDTAVYYCARGRGGSGWLDYWGQGTLVTVSSASTKGPSVFPLAPSSKSTSGGTAALGCLVKDYFPEPVTVSWNSGALTSGVHTFPAVLQSSGLYSLSSVVTVPSSSLGTQTYICNVNHKPSNTKVDKKVEPKSCDKTHTCPPCPAPEAAGAPSVFLFPPKPKDTLMISRTPEVTCVVVDVSHEDPEVKFNWYVDGVEVHNAKTKPREEQYNSTYRVVSVLTVLHQDWLNGKEYKCKVSNKALPAPIEKTISKAKGQPREPQVYTLPPSREEMTKNQVSLTCLVKGFYPSDIAVEWESNGQPENNYKTTPPVLDSDGSFFLYSKLTVDKSRWQQGNVFSCSVMHEALHNHYTQKSLSLSPGGGGGSGGGGSGGGGSEVQLLESGGGLVQPGGSLRLSCAASGFTFSDFWMHWVRQAPGKGLEWISYISGDSGYTNYADSVKGRFTISRDNSKNTLYLQMNSLRAEDTAVYYCARDRPYYYYMDVWGKGTTVTVSSGGGGSGGGGSGGGGSGGGGSDIQMTQSPSSLSASVGDRVTITCRASQSVSRSLAWYQQKPGKAPKLLIYAASSLQSGVPSRFSGSGSGTDFTLTISSLQPEDFATYYCQQYKSYPVTFGQGTKVEIK
light: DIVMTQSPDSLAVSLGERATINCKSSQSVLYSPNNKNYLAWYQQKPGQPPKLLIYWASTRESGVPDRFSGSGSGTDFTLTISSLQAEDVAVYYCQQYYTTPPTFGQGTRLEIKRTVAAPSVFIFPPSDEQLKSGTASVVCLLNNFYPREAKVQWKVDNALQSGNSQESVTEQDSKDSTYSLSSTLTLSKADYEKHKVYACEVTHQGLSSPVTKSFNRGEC
In the case of B14, the Kd is 11300 nM.

B15: PMAB194 (bispecific antibody, human IgG1, kappa)
heavy: EVQLLESGGGLVQPGGSLRLSCAASGFTFSSYDMSWVRQAPGKGLEWVSGITISGGSTYYADSVKGRFTISRDNSKNTLYLQMNSLRAEDTAVYYCARGRGGSGWLDYWGQGTLVTVSSASTKGPSVFPLAPSSKSTSGGTAALGCLVKDYFPEPVTVSWNSGALTSGVHTFPAVLQSSGLYSLSSVVTVPSSSLGTQTYICNVNHKPSNTKVDKKVEPKSCDKTHTCPPCPAPEAAGAPSVFLFPPKPKDTLMISRTPEVTCVVVDVSHEDPEVKFNWYVDGVEVHNAKTKPREEQYNSTYRVVSVLTVLHQDWLNGKEYKCKVSNKALPAPIEKTISKAKGQPREPQVYTLPPSREEMTKNQVSLTCLVKGFYPSDIAVEWESNGQPENNYKTTPPVLDSDGSFFLYSKLTVDKSRWQQGNVFSCSVMHEALHNHYTQKSLSLSPGGGGGSGGGGSGGGGSEVQLLESGGGLVQPGGSLRLSCAASGFTFSSYWMHWVRQAPGKGLEWVSYISGSGGYTNYADSVKGRFTISRDNSKNTLYLQMNSLRAEDTAVYYCARDRPYGYYMDVWGKGTTVTVSSGGGGSGGGGSGGGGSGGGGSDIQMTQSPSSLSASVGDRVTITCRASQSISSSLAWYQQKPGKAPKLLIYAASSLQSGVPSRFSGSGSGTDFTLTISSLQPEDFATYYCQQYKSYPVTFGQGTKVEIK
light: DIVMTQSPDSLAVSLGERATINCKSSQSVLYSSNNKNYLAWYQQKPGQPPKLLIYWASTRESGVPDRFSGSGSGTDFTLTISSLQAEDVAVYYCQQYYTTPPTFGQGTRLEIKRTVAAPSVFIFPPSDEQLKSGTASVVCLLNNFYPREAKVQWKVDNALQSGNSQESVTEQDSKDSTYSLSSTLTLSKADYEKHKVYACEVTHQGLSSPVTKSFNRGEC
B15 gave a Kd of 577 nM.

B16: PMAB198 (bispecific antibody, human IgG1, kappa)
heavy: B15 heavy with L114D
light: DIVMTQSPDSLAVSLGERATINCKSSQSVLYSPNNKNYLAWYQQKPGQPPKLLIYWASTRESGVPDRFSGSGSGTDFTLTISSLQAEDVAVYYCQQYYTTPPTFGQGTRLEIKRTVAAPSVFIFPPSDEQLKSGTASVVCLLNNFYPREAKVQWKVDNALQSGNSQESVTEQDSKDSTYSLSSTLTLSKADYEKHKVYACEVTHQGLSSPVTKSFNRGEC
In turn, B16 registered a Kd of 104 nM.

B17: PMAB195 (bispecific antibody, human IgG1, kappa)
heavy: B15 heavy
light: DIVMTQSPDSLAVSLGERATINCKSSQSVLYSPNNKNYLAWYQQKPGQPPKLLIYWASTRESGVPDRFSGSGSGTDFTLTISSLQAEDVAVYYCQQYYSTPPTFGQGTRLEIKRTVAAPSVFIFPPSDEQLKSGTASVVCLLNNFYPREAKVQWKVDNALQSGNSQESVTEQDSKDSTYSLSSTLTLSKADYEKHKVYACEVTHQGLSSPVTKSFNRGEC
The molecule B17 gave a Kd of 651 nM.

B18: PMAB199 (bispecific antibody, human IgG1, kappa)
heavy: B15 heavy with L114T
light: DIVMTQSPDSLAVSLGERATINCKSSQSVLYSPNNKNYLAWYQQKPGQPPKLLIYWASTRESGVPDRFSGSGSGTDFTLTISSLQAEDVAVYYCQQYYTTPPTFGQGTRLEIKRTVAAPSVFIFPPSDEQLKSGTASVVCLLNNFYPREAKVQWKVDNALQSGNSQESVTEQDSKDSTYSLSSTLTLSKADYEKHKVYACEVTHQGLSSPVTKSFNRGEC
In turn, B18 showed a Kd of 98.6 nM.
